# According to the nanobody polyreactivity screen of Harvey et al. (2022):
# Experiment: yeast display, Sf9 membrane polyspecificity reagent, FACS + sequencing; frameworks hold sequencing errors
# Method in brief: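 Synthetic nanobody libraries on Saccharomyces cerevisiae BJ5465 were galactose-induced for 36–48 hours, stained 1 hour at 4 °C with 10% biotinylated, detergent-solubilized Sf9 membrane reagent and enriched on streptavidin microbeads. FACS then separated cells into low and high (top ~1%) gates by anti-HA (expression) and streptavidin (reagent binding) fluorescence. Genes were colony-PCR amplified, MiSeq 2 × 250 sequenced and CDR-length filtered. A clone's polyreactivity label is that of its gate of origin.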
row,Sequence,polyreactivity (PSR sort gate)
1,QVQLVESGGGLVQAGGSLRLSCAASGRTFERYAMGWYRQAPGKERELVATITRRGGSTYYADSVKGRFTISRDNAKNTVYLQMNSLKPEDTAVYYCNADNQAYRIYARGYWGQGTQVTVSS,high polyreactivity
2,QVQLVESGGGLVQAGGSLRLSCAASGRTFPRYGMGWYRQAPGKERELVATIRTGGRTNYADSVKGRFTISRDNAKNTVYLQMNSLKPEDTAVYYCATDSSKHPYSPTLLKFDYWGQGTQVTVSS,low polyreactivity
3,QVQLVESGGGLVQAGGSLRLSCAASGYTFPMYAMGWYRQAPGKERELVADINIGGASTYYADSVKGRFTISRDNAKNTVYLQMNSLKPEDSAVYYCAKEYYDGYFPTFDYDYWGQGTQVTVSS,low polyreactivity
4,QVQLVESGGGLVQAGGSLRLSCAASGITFPGNAMGWYIQAPGKERELVAVISSGTSTNYADSVKGRFTISRDNAMNTVYLQMNSLKPEDTAVYYCATSLYYYPYYYWGQGTQVTVSS,low polyreactivity
5,QVQLVESGGGLDQAGGSLRLSCAASGLTFYYYAMGWYRQAPGKERELVAAITWRGVSTYYADSVKGRFTISRDNAKNTVYLQMNSLKPEDTAVYYCAAGWTSSRYDFWGQGTQVTVSS,high polyreactivity
6,QVQLVESGGGLVQAGGSLRLSCAASGRTIDDYDMGWYRQAPGKERELVADINSGGSTYYADSVKGRFTISRDNAKNTVYLQMNSLKPEDTAVYYCAATLVPWPYTGPRYGYWGQGTQVTVSS,high polyreactivity
7,QVQLVESGGRLVQAGGSLRLTCAATGRTFVRNPMGSYRQAPGKERELVATIRSGGSTNYADSVKGRFTISRDNAKNTVYLQMNSLKPEDTAVYYCATQGSRARYDYYYWGQGTQVTVSS,high polyreactivity
8,QVQIVESGGGLLQAGGSLPLTCAASGSTFDDNAQGWYRLAPGKERELVAAISYSGGSTYYADSVKGRFTISRDNAKNTVYLQMNSLKPEDPAVYYCAADDLYTDYETWWRRGDYWGQGTQVTVSS,low polyreactivity
9,QVQLVESGGGLVQAGGSLRLSCAASGSTFYPNAMGWYRQAPGKERELVAAISRGTRTKYADSVKGRFTISRDNAMNTVYLQMNSLKPEDTAVYYCAADTGTGLDWGQGTQVTVSS,high polyreactivity
10,QVQLVESGGGLVQAGGSLRLICAASGSTCVDNAMGGYRPAPGKERELVADISSVGSTYYADYVKGRFTISRDNAKNTVYLQMNTLIPEDTAVYYCNRAGGYRTTFYSWGQGTQVTVSS,high polyreactivity
11,QVQLVESGGGLVQAGGSLRLSCAASGSTFYSYAMGWYRQAPGKERELVAAISSSGGRTRYADSVKGRFTISRDNAKNTVYLQMNSLKPEDTAVYYCAARNRVRVGTRIGRIDEDYWGQGTQVTVSS,high polyreactivity
12,QVQLVESGGALVQAGGSLRLSCAASGYIFAYYAMGWYRQAPGKERELVATISYGGGSTYYADSVKGRFTISRDNAKNTVYLQMNSLKPEDTAVYYCAAVPWASDGYYSWGQGTQVTVSS,low polyreactivity
13,QVQLVESGGGLVQAGGSLRLSCAASGSIFSTYAMGWYRQAPGKERELVAAISRRAGTTYYADSVKGRFTISRDNAKNTVYLQMNSLKPEDTAVYYCAALTESSSYGYWGQGTQVTVSS,low polyreactivity
14,QVQLVETGGGLVQAGGSLRLSCAASGIIFFYYGMGWYRQAPGKERELVARISSGGSTNYADSVKGRFTISRDNAKNTVYLHMNSLKQEDTAVYYCAARISTRYGYWGPGTQVTVSS,low polyreactivity
15,QVHLVESVGGLVQAGGSLRLSCAASGRTSGANAMGWYRQAPGKERELVAAIRYSVGSTYYADSVKGRFTISRDNAKNTVYLQMISLKPEDTAVYYCAARGYPKRGGYWGQGTQVTVSS,high polyreactivity
16,QVQLVESGGGLVQAGGSLRLSCAASGNNLCRNAMGWYRQAPGKERELVATISSVGTYYADSVKGRFTISRDNAKNNVYVQMNSLKPEDTAVYSCNARGRRSGYISGYDYWGQGTQVTVSS,high polyreactivity
17,QVQLVESGGGLVQAGGSLRLSCAASGSIFGYYAMGWYRQAPGKERELVAAITWRGGTYYADSVKGRFTISRDNAKNTVYLQMNSLKPEDTAVYYCAAPRLATYQWYDYWGQGTQVTVSS,high polyreactivity
